One data set has as its target Lhr (Escherichia coli MG1655, UniProt P30015 1-1538). In words: EMSA; 5 mM EDTA; 12.5-200 nM protein, 12.5 nM DNA; 20 mM Tris pH 7.5, 10% glycerol, 100 ug/mL BSA, 25 mM DTT, 5 mM EDTA, 12.5 nM Cy5-DNA; 37 C 20 min then ice 10 min; 5% acrylamide TBE gel. The note with it: protein: recombinant; tags: His6; label: 5' Cy5; single strand. (In general: In EMSA bound probe runs differently from free probe, usually more slowly.)

Another data set deals with T1, Lhr-CTD (Escherichia coli MG1655, UniProt P30015 876-1538).
T1 sequence: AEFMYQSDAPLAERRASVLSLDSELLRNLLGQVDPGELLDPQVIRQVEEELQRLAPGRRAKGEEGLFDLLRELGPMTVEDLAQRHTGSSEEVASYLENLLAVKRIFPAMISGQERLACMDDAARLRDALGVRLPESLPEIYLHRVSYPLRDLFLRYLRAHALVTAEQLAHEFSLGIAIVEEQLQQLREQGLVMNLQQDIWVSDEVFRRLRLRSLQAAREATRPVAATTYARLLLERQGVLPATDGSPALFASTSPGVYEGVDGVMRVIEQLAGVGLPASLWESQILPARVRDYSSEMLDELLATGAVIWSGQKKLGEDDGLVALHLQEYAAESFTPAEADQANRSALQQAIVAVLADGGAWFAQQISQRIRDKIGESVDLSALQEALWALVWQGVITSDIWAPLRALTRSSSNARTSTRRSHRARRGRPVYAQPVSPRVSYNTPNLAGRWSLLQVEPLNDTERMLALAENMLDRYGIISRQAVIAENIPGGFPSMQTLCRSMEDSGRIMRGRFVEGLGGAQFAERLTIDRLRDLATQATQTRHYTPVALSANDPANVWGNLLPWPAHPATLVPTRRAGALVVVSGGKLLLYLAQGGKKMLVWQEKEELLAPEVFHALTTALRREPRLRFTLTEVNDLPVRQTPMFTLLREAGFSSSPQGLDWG
Kind of data set: EMSA; 5 mM EDTA; 12.5-200 nM protein, 12.5 nM DNA; no stable complex; 20 mM Tris pH 7.5, 10% glycerol, 100 ug/mL BSA, 25 mM DTT, 5 mM EDTA, 12.5 nM Cy5-DNA; 37 C 20 min then ice 10 min; 5% acrylamide TBE gel. The note with it: protein: recombinant; tags: pNH-TrxT vector (GU269914.1); label: 5' Cy5; single strand.

For the molecule TCGGATCCTCTAGACAGCTCCATGATCACTGGCACTGGTAGAATTCGGC (ssDNA) [Cy5-ssDNA (EMSA)], the binding result is on record as “binds” with Lhr and “no binding” with Lhr-CTD.

(Values after article PMC10953399, “Escherichia coli DNA repair helicase Lhr is also a uracil‐DNA glycosylase”.)
